Test results published in the supplement of paper PMC10065799, “High-throughput profiling of sequence recognition by tyrosine kinases and SH2 domains using bacterial peptide display” (eLife, 2023).

Tests used:
AncSZ = assay: phosphorylation enrichment, bacterial display (enrichment ratio); higher = better substrate or ligand; peptides without Tyr show the background
EPHB1 = EPHB1 (UniProt P54762); assay: as above
EPHB2 = EPHB2 (UniProt P29323); assay: as above
FGFR1 = FGFR1 (UniProt P11362); assay: as above
FGFR3 = FGFR3 (UniProt P22607); assay: as above
FGFR3, sequence (P22607 whole entry, looked up): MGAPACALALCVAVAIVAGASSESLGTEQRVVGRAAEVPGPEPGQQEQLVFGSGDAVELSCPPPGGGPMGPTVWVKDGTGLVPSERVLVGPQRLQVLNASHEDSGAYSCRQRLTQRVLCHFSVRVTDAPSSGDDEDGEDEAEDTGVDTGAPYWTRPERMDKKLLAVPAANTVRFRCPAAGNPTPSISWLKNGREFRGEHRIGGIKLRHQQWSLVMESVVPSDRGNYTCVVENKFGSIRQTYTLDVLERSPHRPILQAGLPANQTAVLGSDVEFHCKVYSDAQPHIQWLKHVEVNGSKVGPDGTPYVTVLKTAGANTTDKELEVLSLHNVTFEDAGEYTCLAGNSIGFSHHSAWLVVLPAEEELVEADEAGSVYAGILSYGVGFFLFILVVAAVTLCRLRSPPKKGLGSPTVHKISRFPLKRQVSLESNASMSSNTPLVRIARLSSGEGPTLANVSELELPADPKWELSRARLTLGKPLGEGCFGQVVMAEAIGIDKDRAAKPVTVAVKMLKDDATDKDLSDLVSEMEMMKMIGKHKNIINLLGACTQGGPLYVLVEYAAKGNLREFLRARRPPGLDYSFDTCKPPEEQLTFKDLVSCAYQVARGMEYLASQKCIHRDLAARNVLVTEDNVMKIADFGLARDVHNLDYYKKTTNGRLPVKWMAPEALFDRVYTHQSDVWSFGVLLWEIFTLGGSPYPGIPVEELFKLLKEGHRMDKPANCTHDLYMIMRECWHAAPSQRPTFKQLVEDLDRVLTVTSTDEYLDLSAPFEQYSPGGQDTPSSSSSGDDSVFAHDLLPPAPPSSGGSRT

Fer (mouse) = assay: as above
Fes = Fes (UniProt P07332); assay: as above
Fes, sequence (P07332 whole entry, looked up): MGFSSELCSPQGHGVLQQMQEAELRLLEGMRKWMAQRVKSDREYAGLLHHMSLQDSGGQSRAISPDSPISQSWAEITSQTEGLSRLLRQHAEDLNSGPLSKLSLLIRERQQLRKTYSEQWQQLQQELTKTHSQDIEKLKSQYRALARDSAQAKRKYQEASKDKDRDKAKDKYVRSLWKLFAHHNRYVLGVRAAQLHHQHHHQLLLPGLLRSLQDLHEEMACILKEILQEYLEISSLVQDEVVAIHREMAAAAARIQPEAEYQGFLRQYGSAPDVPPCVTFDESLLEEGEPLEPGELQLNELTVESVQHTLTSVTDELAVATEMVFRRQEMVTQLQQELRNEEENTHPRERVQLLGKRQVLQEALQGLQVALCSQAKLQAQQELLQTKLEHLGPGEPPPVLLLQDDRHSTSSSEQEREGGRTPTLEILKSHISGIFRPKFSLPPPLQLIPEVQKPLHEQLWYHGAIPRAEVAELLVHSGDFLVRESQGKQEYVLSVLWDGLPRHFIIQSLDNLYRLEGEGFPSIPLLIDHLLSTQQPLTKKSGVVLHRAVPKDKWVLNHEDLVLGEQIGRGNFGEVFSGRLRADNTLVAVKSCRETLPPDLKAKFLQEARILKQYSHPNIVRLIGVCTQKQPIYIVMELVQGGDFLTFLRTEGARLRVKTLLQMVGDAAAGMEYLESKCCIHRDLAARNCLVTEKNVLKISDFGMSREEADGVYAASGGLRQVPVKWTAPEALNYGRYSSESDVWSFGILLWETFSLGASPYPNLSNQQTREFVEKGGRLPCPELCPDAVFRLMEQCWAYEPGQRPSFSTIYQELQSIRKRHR

Fyn = Fyn (UniProt P06241); assay: as above
Fyn, sequence (P06241 whole entry, looked up): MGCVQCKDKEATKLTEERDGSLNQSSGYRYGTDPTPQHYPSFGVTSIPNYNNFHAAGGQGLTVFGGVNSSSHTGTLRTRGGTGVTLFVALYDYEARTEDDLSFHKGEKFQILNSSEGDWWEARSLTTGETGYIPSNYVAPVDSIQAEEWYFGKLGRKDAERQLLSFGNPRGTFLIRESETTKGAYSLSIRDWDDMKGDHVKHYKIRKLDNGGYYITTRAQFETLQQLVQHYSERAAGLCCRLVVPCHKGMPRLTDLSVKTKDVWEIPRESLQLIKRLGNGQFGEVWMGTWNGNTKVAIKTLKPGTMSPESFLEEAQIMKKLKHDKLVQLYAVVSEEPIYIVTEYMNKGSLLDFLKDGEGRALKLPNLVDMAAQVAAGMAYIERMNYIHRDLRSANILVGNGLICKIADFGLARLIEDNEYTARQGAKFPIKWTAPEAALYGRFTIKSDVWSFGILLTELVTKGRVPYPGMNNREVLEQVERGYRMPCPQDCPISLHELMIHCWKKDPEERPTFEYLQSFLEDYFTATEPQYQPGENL

Hck = Hck (UniProt P08631); assay: as above
Hck, sequence (P08631 whole entry, looked up): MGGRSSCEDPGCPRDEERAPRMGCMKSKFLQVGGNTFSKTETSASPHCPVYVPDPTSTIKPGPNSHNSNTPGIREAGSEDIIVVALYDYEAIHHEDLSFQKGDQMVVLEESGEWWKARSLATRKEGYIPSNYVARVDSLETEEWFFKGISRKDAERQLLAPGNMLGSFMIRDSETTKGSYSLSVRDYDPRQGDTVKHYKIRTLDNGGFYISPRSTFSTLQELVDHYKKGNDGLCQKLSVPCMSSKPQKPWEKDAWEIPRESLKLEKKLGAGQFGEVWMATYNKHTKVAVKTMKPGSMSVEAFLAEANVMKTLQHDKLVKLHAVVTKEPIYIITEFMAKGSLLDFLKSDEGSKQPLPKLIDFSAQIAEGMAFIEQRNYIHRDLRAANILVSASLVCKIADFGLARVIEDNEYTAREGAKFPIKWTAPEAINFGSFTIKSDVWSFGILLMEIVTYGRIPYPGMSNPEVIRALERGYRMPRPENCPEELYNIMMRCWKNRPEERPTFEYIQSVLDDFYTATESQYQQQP

Jak2 = Jak2 (UniProt O60674); assay: as above
Jak2, sequence (O60674 whole entry, looked up): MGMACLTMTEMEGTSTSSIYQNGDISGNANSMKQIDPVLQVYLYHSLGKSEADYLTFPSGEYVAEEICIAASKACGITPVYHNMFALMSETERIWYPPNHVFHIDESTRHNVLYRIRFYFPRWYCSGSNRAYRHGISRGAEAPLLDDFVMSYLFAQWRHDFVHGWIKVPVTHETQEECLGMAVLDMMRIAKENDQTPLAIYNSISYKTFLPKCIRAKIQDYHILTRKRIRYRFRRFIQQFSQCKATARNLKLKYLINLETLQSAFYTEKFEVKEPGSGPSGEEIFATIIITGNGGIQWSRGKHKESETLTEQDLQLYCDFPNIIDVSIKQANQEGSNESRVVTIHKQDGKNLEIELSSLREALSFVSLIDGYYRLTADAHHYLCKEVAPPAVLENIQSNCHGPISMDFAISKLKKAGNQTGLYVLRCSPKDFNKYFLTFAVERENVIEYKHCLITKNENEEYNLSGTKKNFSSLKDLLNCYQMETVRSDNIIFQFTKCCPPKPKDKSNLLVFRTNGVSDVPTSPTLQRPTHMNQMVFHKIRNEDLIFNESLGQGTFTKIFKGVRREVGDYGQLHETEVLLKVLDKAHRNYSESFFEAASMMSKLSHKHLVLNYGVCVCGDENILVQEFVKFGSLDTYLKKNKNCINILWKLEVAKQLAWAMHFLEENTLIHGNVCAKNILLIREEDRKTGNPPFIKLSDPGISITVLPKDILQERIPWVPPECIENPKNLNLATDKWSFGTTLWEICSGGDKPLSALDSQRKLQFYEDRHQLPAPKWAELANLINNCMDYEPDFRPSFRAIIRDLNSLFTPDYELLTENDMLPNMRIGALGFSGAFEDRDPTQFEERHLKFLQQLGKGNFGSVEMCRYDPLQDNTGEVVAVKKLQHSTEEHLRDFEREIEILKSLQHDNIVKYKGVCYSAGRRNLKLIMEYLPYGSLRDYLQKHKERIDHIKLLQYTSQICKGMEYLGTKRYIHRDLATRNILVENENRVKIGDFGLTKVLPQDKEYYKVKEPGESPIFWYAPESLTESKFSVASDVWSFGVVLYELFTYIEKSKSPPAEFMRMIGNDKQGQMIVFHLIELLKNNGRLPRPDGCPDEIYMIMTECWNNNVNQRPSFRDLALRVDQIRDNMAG

MERTK = MERTK (UniProt Q12866); assay: as above
MERTK, sequence (Q12866 whole entry, looked up): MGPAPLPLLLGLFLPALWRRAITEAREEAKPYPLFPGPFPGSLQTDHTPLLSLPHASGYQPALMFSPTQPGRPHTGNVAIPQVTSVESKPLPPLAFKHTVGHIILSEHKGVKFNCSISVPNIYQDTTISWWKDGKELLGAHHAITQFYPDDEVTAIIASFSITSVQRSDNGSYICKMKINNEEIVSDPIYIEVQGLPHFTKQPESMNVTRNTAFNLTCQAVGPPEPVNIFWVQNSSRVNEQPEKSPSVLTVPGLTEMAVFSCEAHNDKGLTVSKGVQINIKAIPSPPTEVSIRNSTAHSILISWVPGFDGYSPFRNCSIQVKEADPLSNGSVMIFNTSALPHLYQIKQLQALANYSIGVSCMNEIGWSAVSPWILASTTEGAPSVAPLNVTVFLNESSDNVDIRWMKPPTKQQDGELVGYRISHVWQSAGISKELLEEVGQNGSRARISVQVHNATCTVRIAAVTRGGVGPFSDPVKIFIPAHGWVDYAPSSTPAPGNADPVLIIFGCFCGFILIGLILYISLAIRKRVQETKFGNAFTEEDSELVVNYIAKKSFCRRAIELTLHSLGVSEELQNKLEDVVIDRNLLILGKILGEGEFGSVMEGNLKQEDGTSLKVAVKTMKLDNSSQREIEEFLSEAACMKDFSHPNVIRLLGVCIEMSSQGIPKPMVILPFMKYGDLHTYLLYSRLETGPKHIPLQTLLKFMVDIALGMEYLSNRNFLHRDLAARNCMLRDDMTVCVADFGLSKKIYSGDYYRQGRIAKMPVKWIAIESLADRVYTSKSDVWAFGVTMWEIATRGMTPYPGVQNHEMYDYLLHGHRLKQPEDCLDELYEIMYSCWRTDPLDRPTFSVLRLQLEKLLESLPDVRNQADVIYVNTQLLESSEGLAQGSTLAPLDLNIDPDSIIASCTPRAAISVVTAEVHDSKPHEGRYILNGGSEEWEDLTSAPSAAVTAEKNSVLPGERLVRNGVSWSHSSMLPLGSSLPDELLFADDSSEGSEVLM

c-Abl (mouse) = assay: as above
c-Src = assay: as above
Grb2 SH2 = Grb2 SH2 (UniProt P62993); assay: SH2 binding enrichment of the phosphorylated peptide, bacterial display (enrichment ratio); higher = better substrate or ligand; peptides without Tyr show the background
SHP2-C SH2 = assay: as above
c-Src SH2 = assay: as above
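For SH2 binding enrichment of the phosphorylated peptide, bacterial display in this document: peptide library displayed on the E. coli surface as eCPX fusions, selected cells deep-sequenced, score is each peptide's frequency after selection divided by its frequency in the input.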
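For phosphorylation enrichment, bacterial display in this document: 11-residue human phosphosite peptides and single-mutation variants displayed on the E. coli surface, counted by deep sequencing, each peptide's frequency after selection divided by its frequency in the unselected input library; frequency after pTyr selection over input frequency; kinase dosed for 20-30% of maximal phosphorylation in three min.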

SH2 binding enrichment (Grb2 SH2) | SH2 binding enrichment (SHP2-C SH2) | SH2 binding enrichment (c-Src SH2) | Sequence | phosphorylation enrichment (AncSZ) | phosphorylation enrichment (EPHB1) | phosphorylation enrichment (EPHB2) | phosphorylation enrichment (FGFR1) | phosphorylation enrichment (FGFR3) | phosphorylation enrichment (Fer (mouse)) | phosphorylation enrichment (Fes) | phosphorylation enrichment (Fyn) | phosphorylation enrichment (Hck) | phosphorylation enrichment (Jak2) | phosphorylation enrichment (MERTK) | phosphorylation enrichment (c-Abl (mouse)) | phosphorylation enrichment (c-Src)
0.834 | 0.555 | 0.469 | NGEDLYAGSTD [XRCC1_Y515_P514L] | 1.17 | 0.517 | 0.541 | 0.489 | 0.613 | 0.52 | 1.05 | 0.66 | 0.886 | 1.02 | 0.446 | 0.743 | 0.807
0.644 | 0.629 | 0.535 | EWCSPYGLTPR [GRIN3B_Y601_R598C] | 0.815 | 0.556 | 0.569 | 0.474 | 0.613 | 1.2 | 1.02 | 1.76 | 1.04 | 0.778 | 1.01 | 0.734 | 3.91
1.04 | 0.974 | 0.649 | QDDTVYMGKVT [DCTN1_Y1244] | 1.96 | 0.8 | 0.918 | 0.789 | 1.17 | 2.72 | 2.4 | 0.958 | 1.24 | 1.31 | 0.714 | 1.37 | 0.917
0.893 | 14.2 | 4.66 | SKAYAYVHFDS [PABPC5_Y149_G146A] | 0.967 | 0.549 | 0.461 | 0.445 | 0.803 | 0.477 | 1.19 | 0.394 | 0.398 | 1.05 | 0.389 | 0.789 | 0.365
1.24 | 0.919 | 1.18 | KFDLMYAKWAF [TUBA3E_Y399] | 1.18 | 0.783 | 0.784 | 0.669 | 0.866 | 5.85 | 1.26 | 1.43 | 2.16 | 1 | 3.02 | 1.68 | 1.98
0.859 | 0.785 | 0.56 | ADTETYLLEKS [MYH7_Y266_I263T] | 1.12 | 0.449 | 0.586 | 0.57 | 0.745 | 0.607 | 1.1 | 0.603 | 0.512 | 1.01 | 0.385 | 0.709 | 0.551
1.1 | 0.999 | 0.823 | KPEKTYGLRKE [CEP43_Y267] | 0.595 | 0.433 | 0.409 | 0.344 | 0.614 | 0.395 | 0.766 | 0.46 | 0.503 | 0.683 | 0.441 | 0.782 | 0.43
2.45 | 0.818 | 1.89 | CTTIHYNNMCN [TP53_Y234_Y236N] | 0.734 | 0.455 | 0.479 | 0.423 | 0.538 | 0.404 | 0.943 | 0.486 | 0.532 | 0.551 | 0.367 | 0.528 | 0.416
1.15 | 0.782 | 0.79 | KSSDVYVSFDC [SORL1_Y136_Y141C_YF] | 1.44 | 1.41 | 0.802 | 1.92 | 1.61 | 0.733 | 1.18 | 5.22 | 2.16 | 0.889 | 0.803 | 0.786 | 3.34
0.851 | 0.892 | 0.54 | QDDFSYPSRQM [LDLR_Y847_G844D_YF] | 0.791 | 0.549 | 0.575 | 0.425 | 0.704 | 0.492 | 0.826 | 0.414 | 0.575 | 0.674 | 0.497 | 0.609 | 0.403
0.794 | 0.486 | 0.402 | MRALIYNSSTA [PLEKHA7_Y243] | 0.834 | 0.507 | 0.453 | 0.448 | 0.493 | 0.424 | 0.772 | 0.622 | 0.647 | 0.8 | 0.465 | 0.741 | 0.724
0.902 | 0.841 | 0.534 | EKEKKYMLPLD [DNM2_Y563] | 0.885 | 0.526 | 0.473 | 0.412 | 0.466 | 0.489 | 0.796 | 0.625 | 0.591 | 0.849 | 0.449 | 0.589 | 0.452
0.876 | 0.567 | 0.848 | RLGDLYEEEMR [VIM_Y150] | 0.72 | 0.615 | 0.691 | 0.48 | 0.487 | 0.377 | 1.14 | 0.487 | 0.379 | 0.938 | 0.335 | 0.585 | 0.425
0.347 | 0.651 | 0.493 | PLEGEYFTLQI [TP53_Y327_D324E] | 6.22 | 4.24 | 5.04 | 18.5 | 15.5 | 3.01 | 3 | 9.83 | 4.86 | 5.5 | 0.967 | 2.98 | 7.65
0.868 | 1.09 | 0.573 | ADARMYGDLPW [PLP1_Y207_V209D] | 0.766 | 0.65 | 0.506 | 0.6 | 0.7 | 1.43 | 0.794 | 3.54 | 3.49 | 0.71 | 0.52 | 0.586 | 2.74
0.89 | 0.676 | 0.471 | KVGNEYVTKGQ [MYH7_Y410] | 0.492 | 0.303 | 0.495 | 0.393 | 0.422 | 0.269 | 0.578 | 0.3 | 0.334 | 0.471 | 0.332 | 0.469 | 0.339

SH2 binding enrichment (Grb2 SH2) | SH2 binding enrichment (SHP2-C SH2) | SH2 binding enrichment (c-Src SH2) | Sequence | phosphorylation enrichment (AncSZ) | phosphorylation enrichment (EPHB1) | phosphorylation enrichment (EPHB2) | phosphorylation enrichment (FGFR1) | phosphorylation enrichment (FGFR3) | phosphorylation enrichment (Fer (mouse)) | phosphorylation enrichment (Fes) | phosphorylation enrichment (Fyn) | phosphorylation enrichment (Hck) | phosphorylation enrichment (Jak2) | phosphorylation enrichment (MERTK) | phosphorylation enrichment (c-Abl (mouse)) | phosphorylation enrichment (c-Src)
0.845 | 0.631 | 0.622 | GVASDYKCVDP [VPS13B_Y1991_I1994V] | 1.05 | 0.624 | 0.62 | 0.533 | 0.821 | 0.548 | 1.16 | 0.504 | 0.537 | 0.964 | 0.476 | 0.791 | 0.458
0.962 | 1.26 | 0.689 | DDLTDYLMKIL [ACTA1_Y190_R185D] | 1.22 | 0.476 | 0.553 | 0.516 | 0.669 | 0.457 | 1.1 | 0.444 | 0.519 | 1.15 | 0.529 | 0.758 | 0.548
0.935 | 0.638 | 0.566 | RMDGKYACSFT [FLNB_Y704_T703K_YF] | 1.38 | 0.882 | 0.977 | 1.1 | 1.45 | 0.701 | 1.28 | 0.756 | 0.964 | 0.929 | 0.589 | 0.902 | 0.491
0.756 | 0.821 | 0.744 | LEHCQYVTEKV [ALDOB_Y204] | 1.83 | 1.74 | 1.55 | 1.6 | 1.91 | 1.91 | 2.85 | 1.59 | 0.839 | 1.68 | 1.04 | 1.18 | 0.822
0.993 | 0.624 | 0.779 | GDEEDYEEIPG [EGFR_opt_E_2015] | 1.36 | 0.893 | 0.59 | 0.62 | 0.823 | 0.645 | 1.38 | 0.596 | 0.527 | 1.36 | 0.498 | 0.898 | 0.598
0.68 | 0.637 | 0.472 | DKPENYRRLDI [VHL_Y175_V170D] | 0.647 | 0.388 | 0.412 | 0.558 | 0.467 | 0.452 | 0.657 | 0.46 | 0.442 | 0.551 | 0.402 | 0.39 | 0.418
1.49 | 1.27 | 1.27 | RLLVVYHWTQR [HBD_Y36_P37H] | 1.42 | 0.785 | 0.514 | 0.458 | 0.75 | 0.659 | 1.58 | 0.46 | 0.85 | 1.17 | 0.666 | 1.32 | 0.566
1 | 0.954 | 0.612 | FLNSIYKSRDE [ROS1_Y2227] | 0.566 | 0.365 | 0.517 | 0.439 | 0.507 | 0.342 | 0.642 | 0.444 | 0.519 | 0.612 | 0.357 | 0.499 | 0.481
0.767 | 0.413 | 0.451 | VAVVQYSGTGQ [COL6A1_Y878] | 0.517 | 0.479 | 0.463 | 0.487 | 0.564 | 0.387 | 0.71 | 0.357 | 0.438 | 0.576 | 0.412 | 0.592 | 0.451
0.734 | 0.586 | 0.546 | NSGFFYKTAEE [CCT6B_Y250] | 1.31 | 0.655 | 0.722 | 0.556 | 0.74 | 0.486 | 1.41 | 0.462 | 0.445 | 1.44 | 0.435 | 0.888 | 0.476
0.719 | 0.464 | 0.49 | GIMEEYQLPFF [BMPR1A_Y453_V450M_YF] | 4.83 | 0.648 | 0.914 | 1.7 | 1.32 | 0.587 | 1.11 | 1.2 | 0.676 | 1.09 | 0.499 | 2.27 | 0.894
1.29 | 0.993 | 1.16 | RSHRSYSCQVM [IGLL1_Y192_R189H] | 0.609 | 0.696 | 0.512 | 0.637 | 0.671 | 0.416 | 0.941 | 0.508 | 0.559 | 0.57 | 0.526 | 0.594 | 0.604
0.739 | 0.723 | 0.76 | YETSHYPASPD [CTNND2_Y1217] | 0.858 | 0.382 | 0.512 | 0.454 | 0.626 | 0.484 | 0.771 | 0.434 | 0.421 | 0.7 | 0.42 | 0.528 | 0.489
0.95 | 0.478 | 0.534 | RRIHSYRGHLC [VHL_Y112_W117C] | 0.774 | 0.656 | 0.619 | 0.503 | 0.733 | 0.382 | 1.3 | 0.531 | 0.63 | 0.821 | 0.828 | 0.534 | 0.566
1.68 | 0.821 | 2.35 | NYCPGYNNFYN [USH2A_Y467_R464C] | 0.988 | 0.888 | 0.753 | 0.638 | 0.791 | 0.588 | 1.06 | 0.64 | 0.613 | 1.12 | 0.566 | 0.761 | 1.26
0.836 | 0.906 | 0.39 | RLVTRYIYNRE [HLA-DQB1_Y62_Y58L] | 0.697 | 0.443 | 0.481 | 0.86 | 0.739 | 0.408 | 0.822 | 0.673 | 0.424 | 0.493 | 0.507 | 0.447 | 0.532

Sequence | SH2 binding enrichment (Grb2 SH2) | SH2 binding enrichment (SHP2-C SH2) | SH2 binding enrichment (c-Src SH2) | phosphorylation enrichment (AncSZ) | phosphorylation enrichment (EPHB1) | phosphorylation enrichment (EPHB2) | phosphorylation enrichment (FGFR1) | phosphorylation enrichment (FGFR3) | phosphorylation enrichment (Fer (mouse)) | phosphorylation enrichment (Fes) | phosphorylation enrichment (Fyn) | phosphorylation enrichment (Hck) | phosphorylation enrichment (Jak2) | phosphorylation enrichment (MERTK) | phosphorylation enrichment (c-Abl (mouse)) | phosphorylation enrichment (c-Src)
TTKAKYKTPTY [PLD2_Y573] | 0.906 | 0.848 | 0.541 | 0.473 | 0.328 | 0.313 | 0.287 | 0.32 | 0.336 | 0.501 | 0.393 | 0.443 | 0.488 | 0.362 | 0.539 | 0.406
